Measured values reported in the supplement of paper PMC10201428.
± gives the standard deviation of the averaged measurements.

What was measured:
[1] = test system: VchCAST RNA-guided transposition machinery (E. coli BL21(DE3) host, lacZ target); assay: relative integration efficiency (T-RL orientation) vs wild-type transposon end (log2 (normalized fold change)); transposon end mutated: right end (5 bp flank + 75 bp right end); higher = more efficient transposition
Method in brief: (§1)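 A T7-driven effector plasmid encoding a CRISPR array, tniQ-cas8-cas7-cas6 and tnsA-tnsB-tnsC was co-transformed into E. coli BL21(DE3) together with a pUC57 mini-transposon donor holding barcoded pools of 1549 left-end or 1849 right-end variants. Transformants were plated with 0.1 mM IPTG at 37°C for 18 h. Illumina sequencing of PCR-amplified input plasmids and genomic integration junctions gave barcode abundances, and relative integration efficiency is their output/input fold change, normalised to reference barcodes and log-transformed.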

[2] = test system: VchCAST RNA-guided transposition machinery (E. coli BL21(DE3) host, lacZ target); assay: relative integration efficiency (T-LR orientation) vs wild-type transposon end (log2 (normalized fold change)); transposon end mutated: right end (5 bp flank + 75 bp right end); higher = more efficient transposition
Method in brief: as §1

Row | Sequence | relative integration efficiency (log2) [1] | relative integration efficiency (log2) [2]
1 | ACATTTGTTGATACAACCATAAAATGATAATTAATAATTACACCCATAAATTGATAATTATCAACAAACGCCCGGTCGCGGTACTCTGATCATAGTCAGACCAACATTGCTACGACCCGTATTCGCA | -2.18 ± 0.28 | 1.37 ± 0.24
2 | ACATTTGTTGATACAACCATAAAATGATAATTAATAATTACACCCATAAATTGATAATTATCACACCCATAAATTGATATTGCCTCTGATCATAGTCAGACCAACATTGCTACGACCCGTATTCGCA | -3.12 ± 0.2 | 0.0363 ± 0.21
3 | ACATTTGTTGATACAACCATAAAATGATAATTAATAATTATCACCCATAAATTGATAATTATCAACAAACGCCCGGTCGCGGTACTCTGATCATAGTCAGACCAACATTGCTACGACCCGTATTCGC | -3.56 ± 0.2 | -0.012 ± 0.0046
4 | ACATTTGTTGATACAACCATAAAATGATAATTAATAATTATCACCCATAAATTGATAATTATCACACCCATAAATTGATATTGCCTCTGATCATAGTCAGACCAACATTGCTACGACCCGTATTCGC | -3.32 ± 0.2 | -0.503 ± 0.38
5 | ACATTTGTTGATACAACCATAAAATGATAATTAATAATTATTCACCCATAAATTGATAATTATCAACAAACGCCCGGTCGCGGTACTCTGATCATAGTCAGACCAACATTGCTACGACCCGTATTCG | -2.63 ± 0.4 | 0.337 ± 0.11
6 | ACATTTGTTGATACAACCATAAAATGATAATTAATAATTATTCACCCATAAATTGATAATTATCACACCCATAAATTGATATTGCCTCTGATCATAGTCAGACCAACATTGCTACGACCCGTATTCG | -3.976 ± 0.019 | -1.92 ± 0.46
7 | ACATTTGTTGATACAACCATAAAATGATAATTAATAATTATTTACACCCATAAATTGATAATTATCAACAAACGCCCGGTCGCGGTACTCTGATCATAGTCAGACCAACATTGCTACGACCCGTATT | -2.54 ± 0.21 | 0.163 ± 0.01
8 | ACATTTGTTGATACAACCATAAAATGATAATTAATAATTATTTACACCCATAAATTGATAATTATCACACCCATAAATTGATATTGCCTCTGATCATAGTCAGACCAACATTGCTACGACCCGTATT | -2.85 ± 0.13 | -4.57 ± 0.14
9 | ACATTTGTTGATACAACCATAAAATGATAATTAATAATTATTTATAACACCCATAAATTGATAATTATCAACAAACGCCCGGTCGCGGTACTCTGATCATAGTCAGACCAACATTGCTACGACCCGT | -2.63 ± 0.52 | 0.00268 ± 0.47
10 | ACATTTGTTGATACAACCATAAAATGATAATTAATAATTATTTATAACACCCATAAATTGATAATTATCACACCCATAAATTGATATTGCCTCTGATCATAGTCAGACCAACATTGCTACGACCCGT | -3.19 ± 0.2 | -0.494 ± 0.28
11 | ACATTTGTTGATACAACCATAAAATGATAATTAATAATTATTTATAATCACACCCATAAATTGATAATTATCAACAAACGCCCGGTCGCGGTACTCTGATCATAGTCAGACCAACATTGCTACGACC | -2.09 ± 0.28 | 1.25 ± 0.18
12 | ACATTTGTTGATACAACCATAAAATGATAATTAATAATTATTTATAATCACACCCATAAATTGATAATTATCACACCCATAAATTGATATTGCCTCTGATCATAGTCAGACCAACATTGCTACGACC | -3.38 ± 0.096 | -0.35 ± 0.25
13 | ACATTTGTTGATACAACCATAAAATGATAATTAATAATTATTTATAATCACCCATAAATTGATAATTATCAACAAACGCCCGGTCGCGGTACTCTGATCATAGTCAGACCAACATTGCTACGACCCG | -3.08 ± 0.15 | 1.05 ± 0.26
14 | ACATTTGTTGATACAACCATAAAATGATAATTAATAATTATTTATAATCACCCATAAATTGATAATTATCACACCCATAAATTGATATTGCCTCTGATCATAGTCAGACCAACATTGCTACGACCCG | -2.92 ± 0.3 | 0.877 ± 0.18
15 | ACATTTGTTGATACAACCATAAAATGATAATTAATAATTATTTATAATCAGCAACACCCATAAATTGATAATTATCAACAAACGCCCGGTCGCGGTACTCTGATCATAGTCAGACCAACATTGCTAC | -3.18 ± 0.077 | 0.0215 ± 0.36
16 | ACATTTGTTGATACAACCATAAAATGATAATTAATAATTATTTATAATCAGCAACCACCCATAAATTGATAATTATCAACAAACGCCCGGTCGCGGTACTCTGATCATAGTCAGACCAACATTGCTA | -2.29 ± 0.24 | 0.0897 ± 0.14

Row | Sequence | relative integration efficiency (log2) [1] | relative integration efficiency (log2) [2]
17 | ACATTTGTTGATACAACCATAAAATGATAATTAATAATTATTTATAATCAGCAACCACCCATAAATTGATAATTATCACACCCATAAATTGATATTGCCTCTGATCATAGTCAGACCAACATTGCTA | -3.26 ± 0.25 | -1.81 ± 0.066
18 | ACATTTGTTGATACAACCATAAAATGATAATTAATAATTATTTATAATCAGCAACTCACCCATAAATTGATAATTATCAACAAACGCCCGGTCGCGGTACTCTGATCATAGTCAGACCAACATTGCT | -2.25 ± 0.75 | -0.174 ± 0.43
19 | ACATTTGTTGATACAACCATAAAATGATAATTAATAATTATTTATAATCAGCAACTCACCCATAAATTGATAATTATCACACCCATAAATTGATATTGCCTCTGATCATAGTCAGACCAACATTGCT | -3.48 ± 0.49 | -2.22 ± 1.2
20 | ACATTTGTTGATACAACCATAAAATGATAATTAATAATTATTTATAATCAGCAACTTAACACCCATAAATTGATAATTATCAACAAACGCCCGGTCGCGGTACTCTGATCATAGTCAGACCAACATT | -3.404 ± 0.015 | -0.0617 ± 0.066
21 | ACATTTGTTGATACAACCATAAAATGATAATTAATAATTATTTATAATCAGCAACTTAACACCCATAAATTGATAATTATCACACCCATAAATTGATATTGCCTCTGATCATAGTCAGACCAACATT | -3.62 ± 0.28 | -0.417 ± 0.9
22 | ACATTTGTTGATACAACCATAAAATGATAATTAATAATTATTTATAATCAGCAACTTAACCACAAAACACCCATAAATTGATAATTAACAAAACACCCATAAATTGATATTGCCTCTGATCATAGTC | -5.1 ± 0.59 | < -10
23 | ACATTTGTTGATACAACCATAAAATGATAATTAATAATTATTTATAATCAGCAACTTAACCACAAAACACCCATAAATTGATAATTAACAAAAGTGGGTATTTAACTATAACGTGTGAATCGAGTAT | -3.472 ± 0.019 | -1.88 ± 0.39
24 | ACATTTGTTGATACAACCATAAAATGATAATTAATAATTATTTATAATCAGCAACTTAACCACAAAACACCCATAAATTGATAATTAACAACACCCATAAATTGATATTGCCTCTGATCATAGTCAG | -4.56 ± 0.76 | -1.12 ± 0.49
25 | ACATTTGTTGATACAACCATAAAATGATAATTAATAATTATTTATAATCAGCAACTTAACCACAAAACACCCATAAATTGATAATTATCAACAAACGCCCGGTCGCGGTACTCTGATCATAGTCAGA | -4.43 ± 0.39 | -2.48 ± 1.9
26 | ACATTTGTTGATACAACCATAAAATGATAATTAATAATTATTTATAATCAGCAACTTAACCACAAACACCCATAAATTGATAATTATCAACAAACGCCCGGTCGCGGTACTCTGATCATAGTCAGAC | -3.5 ± 0.52 | -0.33 ± 0.047
27 | ACATTTGTTGATACAACCATAAAATGATAATTAATAATTATTTATAATCAGCAACTTAACCACAAACACCCATAAATTGATAATTATCACACCCATAAATTGATATTGCCTCTGATCATAGTCAGAC | -5.71 ± 1.2 | -4.03 ± 0.67
28 | ACATTTGTTGATACAACCATAAAATGATAATTAATAATTATTTATAATCAGCAACTTAACCACAACACCCATAAATTGATAATTATCAACAAACGCCCGGTCGCGGTACTCTGATCATAGTCAGACC | -3.33 ± 0.27 | -0.0981 ± 0.042
29 | ACATTTGTTGATACAACCATAAAATGATAATTAATAATTATTTATAATCAGCAACTTAACCACAACACCCATAAATTGATAATTATCACACCCATAAATTGATATTGCCTCTGATCATAGTCAGACC | -3.94 ± 1.1 | -2.74 ± 0.53
30 | ACATTTGTTGATACAACCATAAAATGATAATTAATAATTATTTATAATCAGCAACTTAACCACACACCCATAAATTGATAATTATCAACAAACGCCCGGTCGCGGTACTCTGATCATAGTCAGACCA | -2.65 ± 0.4 | 0.76 ± 0.68
31 | ACATTTGTTGATACAACCATAAAATGATAATTAATAATTATTTATAATCAGCAACTTAACCACACACCCATAAATTGATAATTATCACACCCATAAATTGATATTGCCTCTGATCATAGTCAGACCA | -3.09 ± 0.16 | -0.603 ± 0.78
32 | ACATTTGTTGATACAACCATAAAATGATAATTAATAATTATTTATAATCAGCAACTTAACCACACCCATAAATTGATAATTATCAACAAACGCCCGGTCGCGGTACTCTGATCATAGTCAGACCAAC | -2.81 ± 0.91 | 1.01 ± 0.042
